Results published in patent US20070293451A1 (UNIVERSITY OF PITTSBURGH, published 2007).
Ends that are not written are not given here. * marks the point of attachment. 6FAM = O=C1OC2(c3ccc(O)cc3Oc3cc(O)ccc32)c2cc(C(=O)*)ccc21; Ahx = NCCCCCC(=O)O

T1: full length Sse1p (yeast Hsp110) (Saccharomyces cerevisiae (yeast), UniProt P32589 2-693)
T1 construct: Purified as in Goeckeler et al., 2002; also called Sselp
T1 sequence: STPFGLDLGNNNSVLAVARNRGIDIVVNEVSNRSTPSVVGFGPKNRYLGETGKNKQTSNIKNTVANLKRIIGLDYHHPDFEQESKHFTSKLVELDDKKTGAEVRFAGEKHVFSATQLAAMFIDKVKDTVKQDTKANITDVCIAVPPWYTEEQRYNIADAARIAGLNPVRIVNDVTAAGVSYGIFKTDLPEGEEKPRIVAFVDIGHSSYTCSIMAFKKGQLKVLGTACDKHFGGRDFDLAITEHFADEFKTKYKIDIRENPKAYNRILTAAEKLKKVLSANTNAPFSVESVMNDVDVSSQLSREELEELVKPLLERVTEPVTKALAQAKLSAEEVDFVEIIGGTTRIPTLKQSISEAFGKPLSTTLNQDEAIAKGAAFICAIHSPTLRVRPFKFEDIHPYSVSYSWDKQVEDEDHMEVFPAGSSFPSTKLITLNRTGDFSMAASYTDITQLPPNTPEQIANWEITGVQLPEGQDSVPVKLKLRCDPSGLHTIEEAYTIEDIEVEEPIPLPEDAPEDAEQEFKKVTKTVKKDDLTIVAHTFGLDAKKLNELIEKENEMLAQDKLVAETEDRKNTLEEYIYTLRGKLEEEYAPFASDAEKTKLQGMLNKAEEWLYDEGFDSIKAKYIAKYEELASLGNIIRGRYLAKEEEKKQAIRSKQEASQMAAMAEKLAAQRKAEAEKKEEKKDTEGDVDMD

T2: peptide binding domain of Sse1p (Saccharomyces cerevisiae (yeast), UniProt P32589 375-693, limits assumed)
T2 sequence: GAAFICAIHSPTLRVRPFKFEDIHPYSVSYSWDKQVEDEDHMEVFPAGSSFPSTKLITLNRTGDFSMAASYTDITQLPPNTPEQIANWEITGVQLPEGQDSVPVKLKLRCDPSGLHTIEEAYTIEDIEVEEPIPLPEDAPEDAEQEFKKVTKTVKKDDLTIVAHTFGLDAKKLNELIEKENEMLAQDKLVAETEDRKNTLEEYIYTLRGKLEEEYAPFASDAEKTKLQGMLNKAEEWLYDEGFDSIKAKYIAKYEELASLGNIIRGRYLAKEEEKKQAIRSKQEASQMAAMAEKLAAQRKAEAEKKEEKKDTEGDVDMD

B1: 6-carboxyfluorescein-aminohexanoic acid-N-terminal-linked polypeptide LICGFRVVLMYRF (derived from firefly luciferase) (peptide)
peptide: {6FAM-Ahx}-LICGFRVVLMYRF
notes: also called fluorescently labeled peptide

Columns and labels:
[1] = target: T1, full length Sse1p (yeast Hsp110); assay: fluorescence anisotropy
Method: (§1) In this assay, full length Sse1p and the peptide binding domain of Sse1p were bound to a 6-carboxyfluorescein-aminohexanoic acid-N-terminal-linked-polypeptide having the sequence N-[…]-C (SEQ ID NO: 1), which was derived from firefly luciferase. Binding was assessed by fluorescence anisotropy. […] Unlabeled peptide competes for binding (data not shown).

[2] = target: T2, peptide binding domain of Sse1p; assay: fluorescence anisotropy; reference is full-length Sse1p
Method: as §1

[3] = target: T1, full length Sse1p (yeast Hsp110); assay: fluorescence anisotropy competition against the labeled peptide

Kd [1] [nM]	fold lower affinity than full-length Sse1p [2] [fold]	binding result [3]	Binder
2 to 3	~100	–	B1
–	–	binds	LICGFRVVLMYRF [unlabeled peptide LICGFRVVLMYRF]
